Assay results: publication PMC5109244, “A pH‐ and ionic strength‐dependent conformational change in the neck region regulates DNGR‐1 function in dendritic cells” (The EMBO Journal, 2016)

Molecular target: the molecule itself
Test: non-reducing SDS-PAGE and Western blot; supernatants of 293F cells with FLAG-tagged ECD proteins, Laemmli buffer without reducing agent, HRP-conjugated anti-FLAG detection

B1: human DNGR-1 ECD (extracellular domain of human DNGR-1) (domain or fragment)
chain: not shown
modifications: glycosylated (mobility augmented by PNGase F)
notes: human DNGR-1 (CLEC9A), single isoform, extracellular domain K57–V241; Disulfide-bonded homodimer; also called human ECD; human isoform; source: 293F cells, transient transfection
stoichiometry N: 2
